Holding throughout (assay): SPR
(In general: Surface plasmon resonance follows binding to a sensor surface in real time, without labels.)

In experiment [1] the target is mini-procollagen III N306Q (human).
The target of experiment [2] is C-propeptide trimer of human procollagen III (CPIII) (human) (UniProt P02461).
Experiment [3] deals with CPIII-His (human) (UniProt P02461).

Results on two molecules are retold here after paper PMC3234718.

Take “CUB1-CUB2 (minimal active fragment of PCPE-1) (domain or fragment)”: the figures for the KD(1) (heterogeneous ligand model, site 1) in experiment [1], in experiment [2] and in experiment [3] were 0.74 nM, 4.6 nM and 12.8 nM, respectively. For the same molecule, the KD(2) (heterogeneous ligand model, site 2) in experiment [1] was 12.6 nM; in experiment [2] it was 28 nM; in experiment [3] it was 27 nM.

B1: procollagen C-proteinase enhancer-1 (PCPE-1) (natural protein)
chain: QTPNYTRPVFLCGGDVKGESGYVASEGFPNLYPPNKECIWTITVPEGQTVSLSFRVFDLELHPACRYDALEVFAGSGTSGQRLGRFCGTFRPAPLVAPGNQVTLRMTTDEGTGGRGFLLWYSGRATSGTEHQFCGGRLEKAQGTLTTPNWPESDYPPGISCSWHIIAPPDQVIALTFEKFDLEPDTYCRYDSVSVFNGAVSDDSRRLGKFCGDAVPGSISSEGNELLVQFVSDLSVTADGFSASYKTLPRGTAKEGQGPGPKRGTEPKVKLPPKSQPPEKTEESPSAPDAPTCPKQCRRTGTLQSNFCASSLVVTATVKSMVREPGEGLAVTVSLIGAYKTGGLDLPSPPTGASLKFYVPCKQCPPMKKGVSYLLMGQVEENRGPVLPPESFVVLHRPNQDQILTNLSKRKCPSQPVRAAASQD
As to B1, the KD(1) (heterogeneous ligand model, site 1) in experiment [1] stood at 0.66 nM; in experiment [2], 4.7 nM; in experiment [3] it was 5.9 nM. Also, the KD(2) (heterogeneous ligand model, site 2) in experiment [1] worked out at 10 nM; in experiment [2] it was 17 nM; in experiment [3] it was 15 nM.
